Measured values from patent US20100047228.

Test system: delta-plasminogen
Sequence (chain, as listed by the source mutant): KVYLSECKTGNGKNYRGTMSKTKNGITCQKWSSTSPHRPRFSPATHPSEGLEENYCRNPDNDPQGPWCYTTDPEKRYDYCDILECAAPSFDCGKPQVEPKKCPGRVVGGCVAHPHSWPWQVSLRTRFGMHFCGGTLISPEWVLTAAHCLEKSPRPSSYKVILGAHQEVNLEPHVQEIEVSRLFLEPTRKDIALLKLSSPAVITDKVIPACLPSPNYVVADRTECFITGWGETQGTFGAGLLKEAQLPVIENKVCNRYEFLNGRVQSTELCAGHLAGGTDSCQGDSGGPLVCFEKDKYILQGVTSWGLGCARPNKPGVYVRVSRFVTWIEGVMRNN

urokinase
conversion of one-chain delta-plasminogen into two-chain delta-plasmin (reduced SDS-PAGE): delta-plasminogen indeed can be activated by all three plasminogen activators
